Test results published in patent publication US9885713B2, “Diagnosis and treatment of mycobacteria infections” (priority 2013, dated 2018).
Entries after “also recorded” stand apart in the source; their conditions may differ.

Tests used:
Gp6 = biological target: T1, Gp6 (Mycobacterium phage L5, UniProt Q05278, L15P); experiment: Direct ESI-MS assay of carbohydrate binding; design: species or system mycobacteriophage L5
T1 construct: pET-30a(+) vector-encoded N-terminal leader (additional residues up to the EcoRI site) (N); made in house; host or cells: E. coli BL21(DE3)
Procedure: Chemically synthesized fragments of mycobacterial arabinans and phenolic glycolypids were used to test the carbohydrate binding ability of recombinant Gp6. Association constants (Ka) for Gp6 binding to carbohydrate ligands were measured using the direct electrospray ionization mass spectrometry (ESI-MS) assay. The assay is based on the direct detection and quantification of the abundance of ligand-bound and unbound protein ions in the gas phase. All binding measurements were carried out at 25° C. and pH 7.2 using a 9.4T ApexQe FTICR mass spectrometer (Bruker, Billerica, Mass.). ESI was performed in aqueous ammonium acetate (100 mM) solutions prepared from stock solutions of protein and oligosaccharide. The single chain variable fragment (scFv) of the monoclonal antibody Se155-4 was used as reference protein to distinguish specific from nonspecific ligand binding with the protein during the ESI-MS measurements.

[1] = tested on: Mycobacterium avium subsp. paratuberculosis ATCC 19851; experiment: Cell binding assay: protein immobilized on gold surface, capture by SEM and fluorescence microscopy; settings: protein immobilized on gold surface, 20 μg/ml (Gp6 also 40 μg/ml)
Text: (§1) In order to assess mycophage and mycophage RBPs for their use as probes of MAP infection, Gp-10 and Gp-6 were immobilized using an established protocol (Singh et. al. Biosens. Bioelect. 26 131 (2010) and used for the specific bacterial capture. Gold Surfaces were modified by cysteamine hydrochloride followed by activation using 2% gluteraldehyde. The recombinant proteins Gp-10, Gp-6 and Gp-31 were immobilized over the surfaces in order to capture the host bacteria Mycobacterium avium subsp. paratuberculosis ATCC 19851 and Mycobacterium smegmatis mc^2155. Bacterial capture was confirmed by fluorescence microscopy and Scanning Electron Microscopy (SEM). Nonspecific attachment was prevented by using bovine serum albumin (BSA) as the blocking layer. A negative control was run in parallel where a similar gold surface was treated with all reagents, but they were not exposed to the recombinant phage proteins.
(§2) Proteins were immobilized onto cysteamine covered gold surfaces that were activated with glutaraldehyde according to the previously described protocol where RBP samples were used instead of whole phage particles. Briefly, the gold substrates were fabricated using piranha cleaned silicon substrates by sputtering a 25 nm thick gold layer. The gold substrates were sonicated in acetone, isopropanol, ethanol and MilliQ (Millipore) water for 5 min each prior to their use (Branson Ultrasonics 1510, 40 kHz frequency). The gold substrates were incubated overnight at 40° C. in a 50 mM solution of cysteamine hydrochloride (Sigma-Aldrich). The cysteamine self assembled monolayer (SAM) substrates were modified by 2% glutaraldehyde (Sigma-Aldrich) for 1 hr at room temperature and washed twice in PBS. These modified substrates were incubated in a 20 μg/ml solution of Gp10 (or Gp6) in PBS overnight at 60° C. The negative control substrate was incubated in PBS only. To block nonspecific binding of bacteria, the substrates were incubated in 1 mg/ml of bovine serum albumin (Sigma-Aldrich) and were washed twice in PBS. The protein covered substrates were exposed to 10^9 cfu/ml of mycobacterial cells in PBS for 1 hr at room temperature. The immobilized surfaces were washed in 0.05 Tween 20 (Sigma-Aldrich) before analysis. For fluorescence microscopy, the bacterial cells were stained with 50 μM resazurin (Sigma-Aldrich) for 20 min before exposure to the substrates covered with the immobilized proteins.
(§3) Bacterial cell binding to the gold surface covered with the immobilized protein was assessed as described previously. Scanning electron microscopy (SEM) and fluorescent microscopy (FM) were used to estimate the number of bacterial cells bound to the surfaces. The samples were fixed with 2% glutaraldehyde for 2 hrs at room temperature followed by a gradient of ethanol from 50% to 100% before SEM. Finally the samples were dried by nitrogen gas. SEM imaging was performed using a Hitachi S-4800/LEO 1430 microscope. Cells were prestained using 50 μM of resazurin stain (Sigma-Aldrich) for the FM-based binding assay. An Olympus IX81 microscope equipped with a FITC filter and a Roper Scientific Cool-Snaps HQ CCD Camera were Used to Record the FM Images. ImageJ Software (USA NIH) was used to analyze the microscopy images. Average numbers of cells bound to the surface are indicated on the basis of the assessment of the cell number, fields of view, and using 8 gold covered chips per test.

[2] = tested on: Mycobacterium smegmatis mc^2155; experiment: as above; settings: for capture/binding of M. smegmatis cells (in words): protein immobilized on gold surface, 20 μg/ml
Text: as §1, §2, §3

S. Typhimurium = experiment: Specificity control on protein covered gold surfaces (non-host bacteria); format: binding, Salmonella enterica subsp. enterica sv. Typhimurium; settings: protein covered gold surface
Text: (§4) Mycobacteria phage L5 (HER-386) was obtained from the Felix D'Herelle Reference Centre for Bacterial Viruses (Laval University, Quebec, Canada). Mycobacterium marinum ATCC number 927, M. smegmatis mc^2 155 and M. avium subsp. paratuberculosis ATCC 19851 were used in the binding studies along with Campylobacter jejuni NCTC 11168H, Salmonella enterica subsp. enterica sv. Typhimurium ATCC 19585 and E. coli K-12. E. coli DH5α (Invitrogen) and E. coli BL21(DE3) (Invitrogen) were used for cloning and recombinant protein expression procedures, respectively. All mycobacterial strains were grown in ambient atmosphere. Middlebrook 7H9 (BD Biosciences) broth supplemented with oleic acid-albumin-dextrose catalase (BD Biosciences) and mycobactin J (Allied Monitor Inc.) was used to propagate M. smegmatis at 37° C. for 48 hrs as well as MAP cells at 37° C. for 10 days. […]
(§5) Proteins were immobilized onto cysteamine covered gold surfaces that were activated with glutaraldehyde according to the previously described protocol where RBP samples were used instead of whole phage particles. […] For fluorescence microscopy, the bacterial cells were stained with 50 μM resazurin (Sigma-Aldrich) for 20 min before exposure to the substrates covered with the immobilized proteins.
(§6) Bacterial cell binding to the gold surface covered with the immobilized protein was assessed as described previously. […]

E. coli = experiment: as above; format: binding, Escherichia coli; settings: E. coli K12; protein covered gold surface
Text: (§7) The concentrations of the two RBPs of Gp6, Gp-10 and Gp31 were optimized for immobilization. […] The specificity of recognition by the RBPs was confirmed by exposing similar surfaces to E. coli EC12 and Campylobacter jejuni 11168H strains of non-host bacteria.
as §2, with “These modified substrates were incubated in a 20 μg/ml solution of Gp10 (or Gp6) in PBS overnight at 60° C. The negative control substrate was incubated in PBS only. To block nonspecific binding of bacteria, the substrates were incubated in 1 mg/ml of bovine serum albumin (Sigma-Aldrich) and were washed twice in PBS. The protein covered substrates were exposed to 10^9 cfu/ml of mycobacterial cells in PBS for 1 hr at room temperature. The immobilized surfaces were washed in 0.05 Tween 20 (Sigma-Aldrich) before analysis.” left out
as §6

M. marinum cells = experiment: Cell binding assay: protein immobilized on gold surface, capture by SEM and fluorescence microscopy; design: species or system Mycobacterium marinum
Text: as §4, §5, §6

[3] = tested on: Campylobacter jejuni 11168H; experiment: Specificity control on protein covered gold surfaces (non-host bacteria); format: binding; settings: C. jejuni; protein covered gold surface
Text: as §7
as §2, with “These modified substrates were incubated in a 20 μg/ml solution of Gp10 (or Gp6) in PBS overnight at 60° C. The negative control substrate was incubated in PBS only. To block nonspecific binding of bacteria, the substrates were incubated in 1 mg/ml of bovine serum albumin (Sigma-Aldrich) and were washed twice in PBS. The protein covered substrates were exposed to 10^9 cfu/ml of mycobacterial cells in PBS for 1 hr at room temperature. The immobilized surfaces were washed in 0.05 Tween 20 (Sigma-Aldrich) before analysis.” left out
as §6

T1 sequence (Q05278 other isoform, or with tags, fused parts or gaps L15P): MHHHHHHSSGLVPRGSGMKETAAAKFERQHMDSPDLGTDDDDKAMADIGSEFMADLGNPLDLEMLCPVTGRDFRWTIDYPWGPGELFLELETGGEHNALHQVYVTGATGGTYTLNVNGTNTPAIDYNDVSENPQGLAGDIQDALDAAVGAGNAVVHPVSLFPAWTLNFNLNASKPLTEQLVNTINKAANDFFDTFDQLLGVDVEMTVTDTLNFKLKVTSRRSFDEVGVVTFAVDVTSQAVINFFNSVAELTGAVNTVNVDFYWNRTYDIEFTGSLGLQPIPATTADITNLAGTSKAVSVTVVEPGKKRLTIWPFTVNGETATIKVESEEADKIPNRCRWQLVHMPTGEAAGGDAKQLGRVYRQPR

## O=C(NCCCCCCCCO[C@H]1O[C@H](CO[C@H]2O[C@H](CO[C@H]3O[C@H](CO)[C@@H](O)[C@@H]3O)[C@@H](O[C@H]3O[C@H](CO)[C@@H](O)[C@@H]3O)[C@@H]2O)[C@@H](O)[C@@H]1O)C(F)(F)F [compound 6, α-Araf-(1→5)-[α-Araf-(1→3)]-α-Araf-(1→5)-α-Araf-octyl-NHCOCF3]
Gp6
  Kd: 417 µM

## O=C(NCCCCCCCCO[C@H]1O[C@H](CO[C@H]2O[C@H](CO[C@H]3O[C@H](CO)[C@@H](O)[C@@H]3O[C@@H]3O[C@H](CO[C@H]4O[C@H](CO)[C@@H](O)[C@H](O)[C@@H]4O[C@H]4O[C@H](CO)[C@@H](O)[C@H](O)[C@@H]4O)[C@@H](O)[C@@H]3O)[C@@H](O)[C@@H]2O)[C@@H](O)[C@@H]1O)C(F)(F)F [compound 2, α-Manp-(1→2)-α-Manp-(1→5)-β-Araf-(1→2)-α-Araf-(1→5)-α-Araf-(1→5)-α-Araf-octyl-NHCOCF3]
Gp6
  Kd: 227 µM

## COc1ccc(O[C@@H]2O[C@@H](C)[C@H](O)[C@@H](O[C@@H]3O[C@@H](C)[C@H](O)[C@@H](O[C@@H]4O[C@@H](C)[C@@H](OC)[C@@H](OC)[C@@H]4OC)[C@H]3O)[C@H]2OC)cc1 [compound 10, 2,3,4-tri-O-CH3-α-Fucp-(1→3)-α-Rhap(1→3)-2-O-CH3-α-RhapOPMP]
Gp6
  Kd: 1000 ± 500 µM

## O=C(NCCCCCCCCO[C@H]1O[C@H](CO[C@H]2O[C@H](CO[C@H]3O[C@H](CO)[C@@H](O)[C@@H]3O[C@@H]3O[C@H](CO)[C@@H](O)[C@@H]3O)[C@@H](O)[C@@H]2O)[C@@H](O)[C@@H]1O)C(F)(F)F [compound 4, β-Araf-(1→2)-α-Araf-(1→5)-α-Araf-(1→5)-α-Araf-octyl-NHCOCF3]
Gp6; 25° C., pH 7.2, direct ESI-MS assay
  Association constants (Ka) for Gp6: NB^3

## O=C(NCCCCCCCCO[C@H]1O[C@H](CO[C@H]2O[C@H](CO[C@H]3O[C@H](CO)[C@@H](O)[C@@H]3O)[C@@H](O)[C@@H]2O)[C@@H](O)[C@@H]1O)C(F)(F)F [compound 5, α-Araf-(1→5)-α-Araf-(1→5)-α-Araf-octyl-NHCOCF3]
Gp6
  Kd: 132 µM

B1: Gp-31: recombinant His-tagged Gp-31 protein of mycobacteriophage L5 (SEQ ID NO: 5) (protein)
chain: MHHHHHHSSGLVPRGSGMKETAAAKFERQHMDSPDLGTDDDDKAMADIGSEFVTYPTNPLEAIGADGAFEIGGGDWSFGQDYTEQAIRALFTMPAVTMENALGLLEEHLLKLPLEALQGFKDMIPDWVEGAFDTVTGAVQAIMNALQDGPLFLKFAEFQLFLQRLLNNPAEVIGEIPQTLIDGLQDALNTVNNTIQTIVDMLLQALGITPEGELIDRIFDLSDEMEWLQTAASNAATGIQDTWNKFWGALTGRVPDQDQTVAEPAERIGELAGTTSANSSAIAELQRRLDNQQNAGGVAGGDDFERLNISGWDIRYSNGSSGRGYYRADGHQLVWMDEGNQQNTATFVRTNPADEKTATDYQKMTLVVGTISGEVQTVFPPQGGSHTRLWVRVNDNAPTVGITDGVFVEIGGVSKAQIGYRRNGNDTFVGSMVDCTWGAGSIFALTAGTANGAEKFEVSKNGPVLATWSDDGVVSAMGANYRRWGWEGQARNRNLGQGTPNSVTRVTITDNDPTGAGGGAVNVGGDVVGVLPIENGGTGASTASAARTALGIDDLVEDMSDVVRGSVEGLPLIPKIWVGTEAQYTALATKDQSTLYFRTA
modifications: His tag
[1]
  capture/binding of MAP cells (in words): no significant bacterial capture
[2]
  capture/binding of M. smegmatis cells (in words): no significant bacterial capture

B2: Gp6: recombinant His-tagged minor tail protein Gp6 of mycobacteriophage L5 (SEQ ID NO: 1) (protein)
chain: MHHHHHHSSGLVPRGSGMKETAAAKFERQHMDSPDLGTDDDDKAMADIGSEFMADLGNPLDLEMLCLVTGRDFRWTIDYPWGPGELFLELETGGEHNALHQVYVTGATGGTYTLNVNGTNTPAIDYNDVSENPQGLAGDIQDALDAAVGAGNAVVHPVSLFPAWTLNFNLNASKPLTEQLVNTINKAANDFFDTFDQLLGVDVEMTVTDTLNFKLKVTSRRSFDEVGVVTFAVDVTSQAVINFFNSVAELTGAVNTVNVDFYWNRTYDIEFTGSLGLQPIPATTADITNLAGTSKAVSVTVVEPGKKRLTIWPFTVNGETATIKVESEEADKIPNRCRWQLVHMPTGEAAGGDAKQLGRVYRQPR
modifications: His6 tag
S. Typhimurium
  bacterial capture of non-host bacteria (in words): no bacterial capture
[1]; listed as Gp 6
  capture/binding of MAP cells (in words): did not capture any MAP cells
[1]; listed as Gp-6
  capture/binding of MAP cells (in words): not showing any bacterial capture
[2]; 20 μg/ml protein solution used for immobilization onto gold chip
  Capture efficiency of M. smegmatis cells: 31.3±1.5×10^−3 cells/μm^2
[2]; gold surface, 20 μg/ml of RBP, Mycobacterium smegmatis mc^2155
  bacterial capture: 31.3×10^−3 /μm^2
[2]
  capture/binding of M. smegmatis cells (in words): M. smegmatis specific; also recorded: bind only M. smegmatis cells
E. coli
  bacterial capture of non-host bacteria (in words): no bacterial capture
M. marinum cells
  capture of M. marinum cells (in words): Neither of the two proteins was able to capture; also recorded: Neither Gp6 nor Gp10 was able to serve as a capturing agent
[3]
  bacterial capture of non-host bacteria (in words): no bacterial capture
